T1: human ASIC1/ASIC3 channels (co-expressed human ASIC1a and human ASIC3) (human, UniProt Q9UHC3 1-531)
T1 construct: whole, on cells; 3T3 cells co-expressing both subunits; also called 3T3/hASIC1/3; 3T3-hASIC1/ASIC3
T1 sequence 1: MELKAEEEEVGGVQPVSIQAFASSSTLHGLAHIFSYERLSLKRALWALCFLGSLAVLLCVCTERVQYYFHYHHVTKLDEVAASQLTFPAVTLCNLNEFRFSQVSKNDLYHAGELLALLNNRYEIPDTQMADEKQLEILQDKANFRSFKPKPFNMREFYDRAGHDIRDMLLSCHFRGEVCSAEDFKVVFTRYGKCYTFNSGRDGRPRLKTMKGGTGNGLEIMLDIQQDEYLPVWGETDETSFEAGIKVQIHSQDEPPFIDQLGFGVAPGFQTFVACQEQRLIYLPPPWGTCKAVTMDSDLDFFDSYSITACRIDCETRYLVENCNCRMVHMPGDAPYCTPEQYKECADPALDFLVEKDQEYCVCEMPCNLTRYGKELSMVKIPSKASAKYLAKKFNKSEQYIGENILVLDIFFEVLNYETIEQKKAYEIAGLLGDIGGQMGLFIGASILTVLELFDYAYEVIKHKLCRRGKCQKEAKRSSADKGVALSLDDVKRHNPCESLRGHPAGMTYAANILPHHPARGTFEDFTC
T1 sequence 2: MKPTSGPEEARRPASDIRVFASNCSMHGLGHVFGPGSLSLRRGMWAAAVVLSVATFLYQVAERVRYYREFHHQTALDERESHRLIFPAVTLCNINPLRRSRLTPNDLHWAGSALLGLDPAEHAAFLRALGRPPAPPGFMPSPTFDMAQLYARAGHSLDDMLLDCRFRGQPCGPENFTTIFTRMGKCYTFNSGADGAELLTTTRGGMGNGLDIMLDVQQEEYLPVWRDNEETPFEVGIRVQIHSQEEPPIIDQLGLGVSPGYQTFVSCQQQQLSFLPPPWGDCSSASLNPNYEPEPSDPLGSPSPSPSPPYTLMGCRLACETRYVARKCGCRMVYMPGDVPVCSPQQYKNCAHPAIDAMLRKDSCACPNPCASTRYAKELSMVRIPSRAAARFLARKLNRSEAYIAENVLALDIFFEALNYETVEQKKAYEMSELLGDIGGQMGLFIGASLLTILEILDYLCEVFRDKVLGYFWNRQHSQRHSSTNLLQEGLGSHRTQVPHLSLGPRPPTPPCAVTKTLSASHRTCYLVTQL

T2: human ASIC1 (human, UniProt P78348 1-528)
T2 sequence: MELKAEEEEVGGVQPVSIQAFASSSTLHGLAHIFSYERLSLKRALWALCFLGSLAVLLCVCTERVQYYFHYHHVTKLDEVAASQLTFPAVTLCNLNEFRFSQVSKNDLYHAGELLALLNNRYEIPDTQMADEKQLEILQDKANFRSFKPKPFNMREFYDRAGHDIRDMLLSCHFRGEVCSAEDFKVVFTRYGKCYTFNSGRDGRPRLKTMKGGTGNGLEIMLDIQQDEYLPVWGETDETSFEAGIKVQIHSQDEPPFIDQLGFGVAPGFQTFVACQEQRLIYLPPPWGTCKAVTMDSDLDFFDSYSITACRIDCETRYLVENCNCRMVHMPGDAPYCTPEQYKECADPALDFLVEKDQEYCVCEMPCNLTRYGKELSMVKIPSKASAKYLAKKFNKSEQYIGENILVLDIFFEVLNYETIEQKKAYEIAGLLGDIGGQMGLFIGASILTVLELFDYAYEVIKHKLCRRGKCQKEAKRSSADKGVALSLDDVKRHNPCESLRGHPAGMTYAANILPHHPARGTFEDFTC

T3: human ASIC3 (human, UniProt Q9UHC3 1-531)
T3 construct: whole, on cells; Expressed on 3T3 cells (3T3/hASIC3) or HEK293 cells (HEK/hASIC3-QCells); also called hASIC3
T3 sequence (looked up): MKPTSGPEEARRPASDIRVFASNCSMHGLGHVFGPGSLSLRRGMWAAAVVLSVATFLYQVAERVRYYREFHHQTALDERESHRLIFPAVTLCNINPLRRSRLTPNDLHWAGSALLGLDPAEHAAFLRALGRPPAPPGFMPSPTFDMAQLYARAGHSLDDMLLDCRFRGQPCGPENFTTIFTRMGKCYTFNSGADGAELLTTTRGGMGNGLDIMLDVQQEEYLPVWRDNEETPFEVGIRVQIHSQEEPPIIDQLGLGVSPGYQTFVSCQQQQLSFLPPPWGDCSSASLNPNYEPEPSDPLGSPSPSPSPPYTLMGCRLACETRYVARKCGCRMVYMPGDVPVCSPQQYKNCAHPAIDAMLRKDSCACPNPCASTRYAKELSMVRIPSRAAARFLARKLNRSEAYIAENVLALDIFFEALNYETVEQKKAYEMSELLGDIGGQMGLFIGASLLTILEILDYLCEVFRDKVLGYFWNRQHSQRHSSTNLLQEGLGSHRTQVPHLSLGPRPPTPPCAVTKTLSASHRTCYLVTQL

T4: mouse ASIC1a (mouse, UniProt Q6NXK8 1-526)
T4 sequence (looked up): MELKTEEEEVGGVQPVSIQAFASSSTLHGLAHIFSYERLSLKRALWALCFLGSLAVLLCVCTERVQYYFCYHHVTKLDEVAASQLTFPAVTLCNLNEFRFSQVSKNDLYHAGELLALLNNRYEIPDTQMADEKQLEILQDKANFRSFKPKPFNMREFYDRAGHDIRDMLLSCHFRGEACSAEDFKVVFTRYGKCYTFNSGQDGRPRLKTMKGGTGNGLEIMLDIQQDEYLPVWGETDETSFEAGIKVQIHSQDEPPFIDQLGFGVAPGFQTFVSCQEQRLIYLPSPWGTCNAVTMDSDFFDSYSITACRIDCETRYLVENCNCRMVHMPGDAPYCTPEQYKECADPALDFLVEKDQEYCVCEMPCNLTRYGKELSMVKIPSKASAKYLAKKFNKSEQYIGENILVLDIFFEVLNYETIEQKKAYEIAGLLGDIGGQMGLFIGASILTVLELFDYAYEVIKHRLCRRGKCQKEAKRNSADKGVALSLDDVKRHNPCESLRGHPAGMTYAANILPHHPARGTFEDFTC


Assays:
[1] = target: T1, human ASIC1/ASIC3 channels …; test: FACS, 3T3/hASIC1/3 cells, 10 nM antibody
From the text: (§1) For these experiments, four cell lines were constructed: (a) a mouse fibroblast 3T3 cell line stably transfected to overexpress full length human ASIC3 (3T3/hASIC3; amino acids 1-531 of NCBI accession number NP_{—}004760.1), (b) a 3T3 cell line stably transfected to co-express full length human ASIC1a and human ASIC3 (3T3/hASIC1/3; amino acids 1-528 of NCBI accession number NP_{—}001086.2 and amino acids 1-531 of NCBI accession number NP_{—}004760.1), (c) […] a stably transfected 3T3 cell line expressing the full-length mouse ASIC3 channel (3T3/mASIC3; amino acids 1-530 of NCBI accession number NP_{—}892045.2), and (d) a 3T3 cell line stably transfected to co-express full length mouse ASIC1a and mouse ASIC3 (3T3/mASIC1/3; amino acids 1-526 of NCBI accession number NP_{—}033727 and amino acids 1-530 of NCBI accession number NP_{—}892045.2). Antibody binding was determined using flow cytometry (FACS).
(§2) To perform the FACS binding experiments, adherent cells were collected with cold Millipore Accutase 3-5 minutes, spun and resuspended in ice-cold FACS buffer (PBS, 2% HI-FBS and 0.09% Na-azide). Anti-ASIC1 antibody at final concentrations of 10 nM was added for 20-30 minutes on ice. Cells were washed with 900 μL ice-cold FACS buffer, spun, and resuspended in 100 μL ice-cold FACS buffer. A secondary antibody which recognizes human Fc (Jackson Immuno Research, #109-136-098) and is conjugated to allophycocyanin, was then added to the cell mixture at a final concentration of 2.5 ug/mL. After incubating for 20 minutes on ice, the cells were washed and resuspended in FACS buffer, then sorted and analyzed on a flow cytometer (FACSCanto II, BD Biosciences, San Jose, Calif.) to determine relative binding by the candidate antibodies to the tested cell lines. Histograms of cells stained with anti-ASIC1 antibodies were compared with those of cells stained with secondary antibody alone. Percentage of ASIC1 signal over secondary antibody alone was calculated using FlowJo software (Tree Star, Ashland, Oreg.).

human ASIC1 [2] = target: T2, human ASIC1; test: cell-based or functional assay
human ASIC3 = target: T3, human ASIC3; test: FACS, 3T3/hASIC3 cells
From the text: as §1, §2

human ASIC1 [3] = target: T2, human ASIC1; test: FACS titration, 3T3/hASIC1 cells
Experimental: To perform the FACS binding experiments, adherent cells were collected using 1 mM EDTA in PBS, then washed, and re-suspended in cold PBS containing 5% FBS. For each binding experiment, each anti-ASIC1 antibody ([…] or ND7 cells) was added to 250,000 cells in 500 μL of PBS with 5% FBS. After incubation for 20 minutes at room temperature, a secondary antibody which recognizes human Fc (Cat. No. 109-136-098, Jackson ImmunoResearch Laboratories, Inc., West Grove, Pa.) or mouse Fc (Cat. No. 550826, BD Biosciences, San Jose, Calif.) and is conjugated to allophycocyanin, was then added to the cell mixture at a final concentration of 13.3 nM. After incubating for 20 minutes on ice, the cells were washed and resuspended in PBS containing 5% FBS, then sorted and analyzed on a flow cytometer (FACSCalibur, BD Biosciences, San Jose, Calif.) to determine relative binding by the candidate antibodies to the tested cell lines. Histograms of cells stained with anti-ASIC1 antibodies were compared with those of cells stained with secondary antibody alone. Percentage of ASIC1 signal over secondary antibody alone was calculated using FlowJo software (Tree Star, Ashland, Oreg.).

mouse ASIC1a = target: T4, mouse ASIC1a; test: cell-based or functional assay
human ASIC1 [4] = target: T2, human ASIC1; test: cell-based or functional assay; remark: listed apart in the source
human ASIC1 [5] = target: T2, human ASIC1; test: cell-based or functional assay; remark: listed apart in the source

binding result [1]	apparent IC50, human ASIC1 current, Q-Patch (human ASIC1 [2]) [nM]	EC50 (human ASIC1 [3]) [nM]	apparent IC50, mouse ASIC1 current, Q-Patch (mouse ASIC1a) [nM]	FLIPR Dose Curve, pH 5.0 % Block (human ASIC1 [4]) [%]	FLIPR Dose Curve, pH 5.5 % Block (human ASIC1 [4]) [%]	FLIPR Dose Curve, pH 5.5 IC50 (human ASIC1 [4]) [nM]	Current inhibition (%) at 100 nM antibody, Q-Patch, pH 6.0 (human ASIC1 [5]) [%]	Binder	binding result (human ASIC3)
–	≤ 10	> 67	< 25	–	–	–	–	H3M7118N (antibody, V domains shown, Chimeric: human variable, mouse constant domains; H3M prefix marks the Fc, isotype not spelled out) VH: EVQLLESGGGLVQPGGSLRLSCAASGFTFRNYAMSWVRQAPGKGLEWVSAINGGGDSTYYADSVKGRFTISRDNSKNTLYLQMNSLRAEDTAVYYCAKEEGDWNYVGYGYYYYYGMDVWGQGTTVTVSS VL: DIQMTQSPSSMSASVGDRVTITCRASQGISSWLAWYQQKPGKAPKLLIYAASSLQSGVPSRFSGSGSGTDFTLTIRSLQPEDFATYYCQQANSFPYTFGQGTKLEIK	–
binds	–	0.072	–	10	39	0.1	30	H3M6715N (antibody, V domains shown, Chimeric: human variable, mouse constant domains; H3M prefix marks the Fc, isotype not spelled out) VH: EELVLESGGGLVQPGGSLRLSCAASGFMFSTYAMSWVRQAPGKGLEWVSLISGRDGNTYYADSVKGRFTISRDNSRNTLYLQLNSLRAEDTALYYCAKDTAVVPGYGMDVWGQGTTVTVSS VL: DIQMTQSPATLSASVGDRVTITCRASQTISNWLAWYQQRPGKAPKLLIYKASSLETGVPSRFSGSGSGTEFTLTISSLQPDDFASYYCQQYNSYSWTFGQGTKVEIK	no binding (tested: 10 nM; gated lower than 1%)

The next lines start with the binder.

Binder	binding result [1]	apparent IC50, human ASIC1 current, Q-Patch (human ASIC1 [2]) [nM]	EC50 (human ASIC1 [3]) [nM]	apparent IC50, mouse ASIC1 current, Q-Patch (mouse ASIC1a) [nM]	FLIPR Dose Curve, pH 5.0 % Block (human ASIC1 [4]) [%]	FLIPR Dose Curve, pH 5.5 % Block (human ASIC1 [4]) [%]	FLIPR Dose Curve, pH 5.5 IC50 (human ASIC1 [4]) [nM]	Current inhibition (%) at 100 nM antibody, Q-Patch, pH 6.0 (human ASIC1 [5]) [%]	binding result (human ASIC3)
H4H6721N2 (antibody, human IgG4, V domains shown) VH: EVQLLASGGGLVQPGGSLRLSCAASGFTFSSFAMSWVRQAPGKGLEWVSGISGSGVSTYYADSVKGRFTISRDNSKNTLYLQMNSLRAEDTAAYYCAKEAYKWQPWGQGTLVTVSS VL: not shown	binds	< 1	1.7	–	–	–	–	–	no binding (tested: 10 nM; gated lower than 1%)
H4H7101N (antibody, human IgG4, V domains shown) VH: EVQLLASGGGLVQTGGSLRLSCAASGFTFSSFAMSWVRQAPGKGLEWVSGISGSGGSTYYADSVKGRFTISRDNSKNTLYLQMNSLRAEDTAAYYCAKEAYKWQPWGQGIRVTVSS VL: DIQMTQSPSTLSASVGDRVTITCRASQSISSWLAWYQQKPGKAPNLLIYKTSNLESGVPSRFSGSGSGTEFTLTISSLQPDDFATYYCQQYNSYSYTFGQGTKLEIK	binds	–	–	–	–	–	–	–	no binding (tested: 10 nM; gated lower than 1%)

Source: patent US20140056907A1 (Regeneron, published 2014)
